Assay results: US20210017279A1 (NANJING LEGEND BIOTECH, published 2021)

Columns and labels:
[1] = molecular target: LAG-3 on Thaw-and-Use LAG-3 Effector cells; assay: cell-based or functional assay
[2] = molecular target: PD-1 in the PD-1 cell based reporter assay; assay: cell-based or functional assay
Human LAG-3-His = molecular target: T1, Human LAG-3-His (human, UniProt P18627 29-450); assay: SPR (Biacore T200), as in Example 3; Experiment 1
T1 construct: Bought recombinant protein; also called Human LAG-3 protein (Acrobiosystem, 772-6BGF2-D5); not shown: His tag
T1 sequence: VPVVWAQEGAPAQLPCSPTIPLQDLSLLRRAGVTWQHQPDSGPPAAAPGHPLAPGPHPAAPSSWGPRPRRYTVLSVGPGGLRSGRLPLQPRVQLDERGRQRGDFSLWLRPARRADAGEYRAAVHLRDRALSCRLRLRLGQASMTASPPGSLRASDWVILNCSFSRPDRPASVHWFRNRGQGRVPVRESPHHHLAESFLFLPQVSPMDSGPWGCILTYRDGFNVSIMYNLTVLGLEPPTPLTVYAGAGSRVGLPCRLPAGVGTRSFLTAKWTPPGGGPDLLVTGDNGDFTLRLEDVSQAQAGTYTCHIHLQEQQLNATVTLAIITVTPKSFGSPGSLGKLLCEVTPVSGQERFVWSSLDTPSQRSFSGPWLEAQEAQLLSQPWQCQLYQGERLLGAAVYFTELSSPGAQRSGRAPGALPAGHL

Human PD-1 = Human PD-1 (human, UniProt Q15116 25-167, limits assumed); assay: SPR (Biacore T200), as in Example 3; Experiment 1
[3] = molecular target: T2, PD-1 expressed on CHO cells (UniProt Q15116 25-288, limits assumed); assay: flow cytometry on CHO cells expressing PD-1; Experiment 1
T2 construct: whole, on cells; also called CHO-PD-1 cells

[4] = molecular target: T3, human LAG-3 expressed on CHO-K1 cells (human, UniProt P18627 29-525); assay: flow cytometry on CHO cells expressing LAG-3; Experiment 1
T3 construct: also called CHO-huLAG-3 cells; LAG-3 expressed on CHO cells
T3 sequence: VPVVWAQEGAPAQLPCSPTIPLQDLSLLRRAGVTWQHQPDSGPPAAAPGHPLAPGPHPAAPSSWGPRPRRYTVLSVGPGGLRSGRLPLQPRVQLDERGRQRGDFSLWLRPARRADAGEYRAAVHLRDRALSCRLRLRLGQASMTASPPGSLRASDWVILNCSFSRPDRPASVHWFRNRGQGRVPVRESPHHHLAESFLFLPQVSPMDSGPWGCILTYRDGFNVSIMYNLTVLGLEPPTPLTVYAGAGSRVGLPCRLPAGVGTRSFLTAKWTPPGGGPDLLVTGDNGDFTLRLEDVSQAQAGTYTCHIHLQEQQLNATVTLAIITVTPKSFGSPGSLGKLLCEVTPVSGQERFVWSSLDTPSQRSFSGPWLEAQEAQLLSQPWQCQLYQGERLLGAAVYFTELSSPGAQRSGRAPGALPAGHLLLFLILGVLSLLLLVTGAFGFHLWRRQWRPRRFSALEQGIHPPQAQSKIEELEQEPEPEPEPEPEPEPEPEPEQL

[5] = molecular target: T2, PD-1 expressed on CHO cells; assay: flow cytometry competition; blocks PD-L1 binding to CHO-PD-1 cells; Experiment 1
LAG-3-Fc = molecular target: T4, LAG-3-Fc (human, UniProt P18627 29-450, biotinylated (in the blocking assays)); assay: flow cytometry competition; blocks LAG-3-Fc binding to MHC II on A375 cells; Experiment 1
T4 construct: Recombinant LAG-3-Fc (Acrobiosystems / R&D Systems); also called biotinylated LAG-3-Fc protein; not shown: Fc part
T4 sequence: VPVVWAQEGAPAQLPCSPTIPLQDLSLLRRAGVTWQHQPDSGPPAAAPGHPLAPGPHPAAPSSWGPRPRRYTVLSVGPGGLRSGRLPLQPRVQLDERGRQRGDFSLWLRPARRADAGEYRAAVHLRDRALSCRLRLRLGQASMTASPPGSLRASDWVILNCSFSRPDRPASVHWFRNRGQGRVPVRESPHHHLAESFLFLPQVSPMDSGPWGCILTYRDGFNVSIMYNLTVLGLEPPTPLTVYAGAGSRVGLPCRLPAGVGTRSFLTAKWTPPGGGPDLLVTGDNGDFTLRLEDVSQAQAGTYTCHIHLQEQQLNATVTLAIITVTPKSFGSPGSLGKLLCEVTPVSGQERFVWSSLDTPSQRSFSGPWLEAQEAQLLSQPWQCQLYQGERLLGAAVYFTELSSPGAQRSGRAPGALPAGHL

T2 sequence (Q15116 25-288 limits assumed): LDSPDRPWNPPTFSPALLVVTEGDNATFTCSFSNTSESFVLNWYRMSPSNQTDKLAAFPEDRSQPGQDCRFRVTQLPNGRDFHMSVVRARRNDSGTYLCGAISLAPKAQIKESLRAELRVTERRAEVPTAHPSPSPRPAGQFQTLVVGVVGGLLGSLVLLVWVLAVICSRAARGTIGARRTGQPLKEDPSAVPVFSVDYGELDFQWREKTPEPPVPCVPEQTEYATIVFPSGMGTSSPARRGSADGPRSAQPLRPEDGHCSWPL
Human PD-1, sequence (Q15116 25-167 limits assumed): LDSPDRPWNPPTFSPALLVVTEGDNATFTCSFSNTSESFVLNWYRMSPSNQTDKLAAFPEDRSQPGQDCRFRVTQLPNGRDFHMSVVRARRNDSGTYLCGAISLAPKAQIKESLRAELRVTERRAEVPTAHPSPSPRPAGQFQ

B1: BLP-1 (bispecific antibody, human IgG4 S228P, kappa)
heavy: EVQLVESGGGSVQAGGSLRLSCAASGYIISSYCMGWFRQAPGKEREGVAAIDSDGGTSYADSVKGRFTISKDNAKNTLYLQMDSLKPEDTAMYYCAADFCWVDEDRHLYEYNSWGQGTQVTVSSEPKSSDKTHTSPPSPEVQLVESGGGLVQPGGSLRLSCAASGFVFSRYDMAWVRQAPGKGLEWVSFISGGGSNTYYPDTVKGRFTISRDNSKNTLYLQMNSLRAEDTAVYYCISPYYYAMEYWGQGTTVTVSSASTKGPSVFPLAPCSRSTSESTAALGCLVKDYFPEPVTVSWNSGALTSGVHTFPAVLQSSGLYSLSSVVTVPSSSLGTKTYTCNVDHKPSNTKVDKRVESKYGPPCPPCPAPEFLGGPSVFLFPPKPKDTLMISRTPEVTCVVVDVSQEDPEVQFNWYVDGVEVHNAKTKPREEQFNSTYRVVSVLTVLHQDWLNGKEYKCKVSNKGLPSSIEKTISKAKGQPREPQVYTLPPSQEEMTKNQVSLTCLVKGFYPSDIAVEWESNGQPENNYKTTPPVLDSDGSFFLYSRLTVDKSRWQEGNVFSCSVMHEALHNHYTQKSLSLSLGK
light: DIQMTQSPSSVSASVGDRVTITCKASQDVDTAVAWYQQKPGKAPKLLIYWASTRHTGVPSRFSGSGSGTDFTLTISSLQPEDFATYYCQQYSTFPWTFGGGTKVEIKRTVAAPSVFIFPPSDEQLKSGTASVVCLLNNFYPREAKVQWKVDNALQSGNSQESVTEQDSKDSTYSLSSTLTLSKADYEKHKVYACEVTHQGLSSPVTKSFNRGEC
notes: also called PD-1 x LAG-3 proof-of-concept BABP
For B1, the “LAG-3 blockade reporter assay EC50” value [1] was 4.6 nM, the “PD-1 cell based reporter assay EC50” value [2] was 7.62 nM and the Kd (Human LAG-3-His) was 0.44 nM. It also gave a Kd (Human PD-1) of 1.8 nM, an EC50 [3] of 7.91 nM and an EC50 [4] of 0.883 nM. It also gave an EC50 [5] of 6.66 nM and an EC50 (LAG-3-Fc) of 1.8 nM.
